Results from patent US20210269480A1 (published 2021).
*1 amine or outer side, *2 acyl side, *3 side chain or, on linkers, in order; H or OH if unused. Bridges are numbered along the chain shown (N, C = ends). Where no end group is shown, it is not given here. [ ]: non-standard residue; d: D form. TATA = O=C(CC[*:1])N1CN(C(=O)CC[*:2])CN(C(=O)CC[*:3])C1; 1Nal = N[C@@H](Cc1cccc2ccccc12)C(=O)O; 2Nal = N[C@@H](Cc1ccc2ccccc2c1)C(=O)O; Hyp = O=C(O)[C@@H]1C[C@@H](O)CN1; dCya = N[C@H](CS(=O)(=O)O)C(=O)O; hArg = N=C(N)NCCCC[C@H](N)C(=O)O; Agb = N=C(N)NCC[C@H](N)C(=O)O; Pip = O=C(O)[C@@H]1CCCCN1; Aze = O=C(O)[C@@H]1CCN1; βAla = NCCC(=O)O; Sar = CNCC(=O)O

T1: human Nectin-4 (human, UniProt Q96NY8 32-349)
T1 construct: a Gly32-Ser349 FLAG construct is described only under the SPR assay; also called PVRL4
T1 sequence (looked up): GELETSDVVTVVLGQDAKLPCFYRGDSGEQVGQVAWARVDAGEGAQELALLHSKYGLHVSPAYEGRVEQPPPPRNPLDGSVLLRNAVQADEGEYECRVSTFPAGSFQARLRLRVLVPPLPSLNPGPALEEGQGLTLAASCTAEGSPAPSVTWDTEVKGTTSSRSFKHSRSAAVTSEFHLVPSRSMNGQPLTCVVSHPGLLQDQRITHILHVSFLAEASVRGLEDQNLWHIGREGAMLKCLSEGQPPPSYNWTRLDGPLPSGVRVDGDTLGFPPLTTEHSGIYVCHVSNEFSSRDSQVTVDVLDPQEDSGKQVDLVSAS

T2: Human Nectin-4 (residues Gly32-Ser349) with C-terminal FLAG tag, biotinylated (human, UniProt Q96NY8 32-349, randomly biotinylated with EZ-Link Sulfo-NHS-LC-LC-Biotin)
T2 construct: range 32-349; Captured through biotin on a streptavidin CM5 chip in the SPR assay; also called PVRL4; not shown: C-terminal FLAG tag
T2 sequence (looked up): T1 sequence (looked up)

B1: BCY7390 (peptide)
peptide: Ac-CPFGCMKNWSWPIWC
modifications: linker 1-5-15 via TATA
notes: Bicyclic peptide cyclised with TATA; also called 80-09-02-N008
B2: BCY428 (peptide)
peptide: ACPFGCMKNWSWPIWCA
modifications: linker 2-6-16 via TATA
notes: Bicyclic peptide cyclised with TATA; also called 80-09-02-N002
B3: BCY7391 (peptide)
peptide: Ac-CPFGCMKNWSWPIWCTNK
modifications: linker 1-5-15 via TATA
notes: Bicyclic peptide cyclised with TATA; also called 80-09-02-T01-N011

Legend:
human Nectin-4 = biological target: T1, human Nectin-4; experiment: FP competition, tracer SEQ ID NO 217
Description: Peptides were diluted to an appropriate concentration in assay buffer as described in the direct binding assay with a maximum of 5% DMSO, then serially diluted 1 in 2. […] Measurements were conducted as for the direct binding assay, however the gain was determined prior to the first measurement. Data analysis was in Systat Sigmaplot version 12.0 where the mP values were fit to a user defined cubic equation to generate a Ki value: […]

[1] = biological target: T2, Human Nectin-4 (residues Gly32-Ser349) …; experiment: SPR (Biacore), biotinylated human Nectin-4 on streptavidin chip
Description: Biacore experiments were performed to determine kₐ (M⁻¹s⁻¹), kd (s⁻¹), KD (nM) values of monomeric peptides binding to human Necin-4 protein (obtained from Charles River).
For analysis of peptide binding, a Biacore 3000 instrument was used utilising a CM5 chip (GE Healthcare). Streptavidin was immobilized on the chip using standard amine-coupling chemistry at 25° C. with HBS-N (10 mM HEPES, 0.15 M NaCl, pH 7.4) as the running buffer. Briefly, the carboxymethyl dextran surface was activated with a 7 minute injection of a 1:1 ratio of 0.4 M 1-ethyl-3-(3-dimethylaminopropyl) carbodiimide hydrochloride (EDC)/0.1 M N-hydroxy succinimide (NHS) at a flow rate of 10 μl/min. For capture of streptavidin, the protein was diluted to 0.2 mg/ml in 10 mM sodium acetate (pH 4.5) and captured by injecting 120 μl of streptavidin onto the activated chip surface. Residual activated groups were blocked with a 7 minute injection of 1 M ethanolamine (pH 8.5) and biotinylated Nectin-4 captured to a level of 1,200-1,800 RU. Buffer was changed to PBS/0.05% Tween 20 and a dilution series of the peptides was prepared in this buffer with a final DMSO concentration of 0.5%. The top peptide concentration was 100 nM with 6 further 2-fold dilutions. The SPR analysis was run at 25° C. at a flow rate of 50 μl/min with 60 seconds association and dissociation between 400 and 1,200 seconds depending upon the individual peptide. Data were corrected for DMSO excluded volume effects. All data were double-referenced for blank injections and reference surface using standard processing procedures and data processing and kinetic fitting were performed using Scrubber software, version 2.0c (BioLogic Software). Data were fitted using simple 1:1 binding model allowing for mass transport effects where appropriate.

| Binder | Ki (human Nectin-4) [nM] | Kd [1] [nM] |
| --- | --- | --- |
| Ac-CPFGCMKNWSWPIWCTNK (linker 1-5-15 via TATA, also called 80-09-02-T01-N011) | 13.3 |  |
| ACPFGCXKNWSWPIWCTNK (core CPFGC(Nle)KNWSWPIWC (printed (NIe)); TATA on 3 Cys, also called 80-09-02-T01-N041) [BCY7372] | 72.6 |  |
| XACPFGCMKNWSWPIWCA (N-terminal X = 1-Nal; TATA on 3 Cys, also called 80-09-02-N009) [BCY7420] | 63.6 |  |
| XACPFGCMKNWSWPIWCA (N-terminal X = 44BPA (4,4-biphenylalanine); TATA on 3 Cys, also called 80-09-02-N012) [BCY7521] | 224 |  |
| Ac-CP[1Nal][dD]CMPDWSTP[Hyp]WC (linker 1-5-15 via TATA, Bicyclic peptide cyclised with TATA) [BCY8182] |  | 0.96 |
| [βAla][Sar][Sar][Sar][Sar][Sar][Sar][Sar][Sar][Sar][Sar]CP[1Nal][dD]CMKDWSTP[Hyp]WC (linker 12-16-26 via TATA, Bicyclic peptide cyclised with TATA) [BCY8238] |  | 3.88 |
| ACPFGCMKNWSWP[dA]WCTNK (linker 2-6-16 via TATA) [BCY7365] | 282 |  |
| AC[dA]FGCMKNWSWPIWCTNK (linker 2-6-16 via TATA) [BCY7370] | 144 |  |
| Ac-CP[1Nal][dCya]CM[hArg]DWSTP[Hyp]WC (linker 1-5-15 via TATA, Bicyclic peptide cyclised with TATA) [BCY8163] |  | 0.61 |
| {Ac-βAla}-[Sar][Sar][Sar][Sar][Sar]CP[1Nal][dD]CM[hArg]DWSTPIWC (linker 6-10-20 via TATA, Bicyclic peptide cyclised with TATA) [BCY8123] |  | 2.66 |
| Ac-CP[1Nal][dD]CL[hArg]DWSTPIWC (linker 1-5-15 via TATA, Bicyclic peptide cyclised with TATA) [BCY8211] |  | 7.32 |
| Ac-CP[1Nal][dD]CM[hArg]NWSTPIWC (linker 1-5-15 via TATA, Bicyclic peptide cyclised with TATA) [BCY8030] |  | 1.71 |
| Ac-CPFGCMKNWSW[Aze]IWC (linker 1-5-15 via TATA) [BCY7594] | 73 |  |
| Ac-CVTTSYDCWVTLGHCSRF (linker 1-8-15 via TATA, Bicyclic peptide cyclised with TATA) |  | 1380 |
| Q[dK]WCAPLSDYWCNRICA (linker 4-12-16 via TATA) [BCY7426] | 69 |  |
| B1 |  | 40.3 |
| Ac-CPFGCMKNWSW[Pip]IWC (linker 1-5-15 via TATA) [BCY7595] | 219 |  |
| ACPFGCMK[dA]WSWPIWCTNK (linker 2-6-16 via TATA) [BCY7360] | 68.2 |  |
| Ac-CPFGCMKNWS[2Nal]PIWC (linker 1-5-15 via TATA) [BCY7592] | 37.4 |  |
| ACPFGCM[dA]NWSWPIWCTNK (linker 2-6-16 via TATA) [BCY7359] | 160 |  |
| Ac-CP[1Nal][dD]CM[hArg]DWSTPIWC (linker 1-5-15 via TATA, Bicyclic peptide cyclised with TATA) [BCY8127] |  | 1.84 |
| B2 |  | 334 |
| Ac-CP[1Nal][dR]CM[hArg]DWSTP[Hyp]WC (linker 1-5-15 via TATA, Bicyclic peptide cyclised with TATA) [BCY8184] |  | 0.56 |
| ACPF[dA]CMKNWSWPIWCTNK (linker 2-6-16 via TATA) [BCY7350] | 10 |  |

| Binder | Ki (human Nectin-4) [nM] | Kd [1] [nM] |
| --- | --- | --- |
| {Ac-βAla}-[Sar][Sar][Sar][Sar][Sar]CP[1Nal][dD]CM[hArg]DWSTP[Hyp]WC (linker 6-10-20 via TATA, Bicyclic peptide cyclised with TATA) [BCY8122] |  | 0.89 |
| Ac-CP[1Nal][dD]CL[hArg]DWSTP[Hyp]WC (linker 1-5-15 via TATA, Bicyclic peptide cyclised with TATA) [BCY8212] |  | 2.42 |
| Ac-CP[1Nal][dD]CM[hArg]HWSTP[Hyp]WC (linker 1-5-15 via TATA, Bicyclic peptide cyclised with TATA) [BCY8125] |  | 0.52 |
| Ac-CP[1Nal][dR]CM[hArg]NWSTP[Hyp]WC (linker 1-5-15 via TATA, Bicyclic peptide cyclised with TATA) [BCY8128] |  | 1.06 |
| {Ac-βAla}-[Sar][Sar][Sar][Sar][Sar]CP[1Nal][dD]CM[hArg]NWSTP[Hyp]WC (linker 6-10-20 via TATA, Bicyclic peptide cyclised with TATA) [BCY8120] |  | 0.67 |
| {Ac-βAla}-[Sar][Sar][Sar][Sar][Sar]CP[1Nal][dD]CM[hArg]HWSTP[Hyp]WC (linker 6-10-20 via TATA, Bicyclic peptide cyclised with TATA) [BCY8121] |  | 0.53 |
| Ac-CP[1Nal][dR]CM[hArg]HWSTP[Hyp]WC (linker 1-5-15 via TATA, Bicyclic peptide cyclised with TATA) [BCY8129] |  | 0.87 |
| Ac-CP[1Nal][dR]CL[hArg]DWSTP[Hyp]WC (linker 1-5-15 via TATA, Bicyclic peptide cyclised with TATA) [BCY8213] |  | 1.95 |
| Ac-CP[1Nal][dD]CM[hArg]NWSTP[Hyp]WC (linker 1-5-15 via TATA, Bicyclic peptide cyclised with TATA) [BCY8124] |  | 0.69 |
| Ac-CP[1Nal][dR]CL[hArg]HWSTP[Hyp]WC (linker 1-5-15 via TATA, Bicyclic peptide cyclised with TATA) [BCY8214] |  | 0.54 |
| Ac-CP[1Nal][dR]CM[Agb]DWSTP[Hyp]WC (linker 1-5-15 via TATA, Bicyclic peptide cyclised with TATA) [BCY8192] |  | 1.81 |
| {Ac-βAla}-[Sar][Sar][Sar][Sar][Sar]CPF[dA]CM[hArg]NWSWPIWC (linker 6-10-20 via TATA, Bicyclic peptide cyclised with TATA) [BCY7559] |  | 14.9 |
| B3 |  | 59.8 |
| ACAFGCMKNWSWPIWCTNK (linker 2-6-16 via TATA, also called 80-09-02-T01-N022) [BCY7352] | 132 |  |
| ACPFACMKNWSWPIWCTNK (linker 2-6-16 via TATA, also called 80-09-02-T01-N020) [BCY7354] | 884 |  |
| ACPFGCMKNWSWPIWC[dA]NK (linker 2-6-16 via TATA) [BCY7367] | 26.3 |  |
| ACPFGCMANWSWPIWCTNK (linker 2-6-16 via TATA, also called 80-09-02-T01-N026) [BCY7356] | 43.4 |  |
| ACPFGCMKAWSWPIWCTNK (linker 2-6-16 via TATA, also called 80-09-02-T01-N027) [BCY7357] | 45.2 |  |
| XACPFGCMKNWSWPIWCA (N-terminal X = 2-Nal; TATA on 3 Cys, also called 80-09-02-N010) [BCY7421] | 28.5 |  |
| Ac-QKWCAPLSDYWCNRIC (linker 4-12-16 via TATA, Bicyclic peptide cyclised with TATA) [BCY7392] |  | 35.7 |
| Ac-CVTTSYDCWVTLGHCSRF (linker 1-8-15 via TATA) | 232 |  |
| Ac-CPFGCMKNWS[1Nal]PIWC (linker 1-5-15 via TATA) [BCY7591] | 180 |  |
| CPF[dD]CM[hArg]NWSTPIWC (linker 1-5-15 via TATA, Bicyclic peptide cyclised with TATA) [BCY7793] |  | 47 |
| Ac-CPF[dD]CL[hArg]NWSTPPWC (linker 1-5-15 via TATA, Bicyclic peptide cyclised with TATA) [BCY8038] |  | 44.5 |
